B1: NRCoV2-MRed20 VHH (VHH)
VHH: EVQLVESGGGSVQAGGSLRLSCAASGLSFSSYDMGWFRQAPGKEREFVAAIRESGSGTYYADSVKGRFTISRDNAKNTVYLQVSSLKPEDTAVYTCAAKPPFYGSGTYSTPRAYLYWGQGTQVTVSS
B2: NRCoV2-MRed19 VHH (VHH)
VHH: EVQLVESGGGLVQPGGSLRLSCAASTIIFKGQTMGWFRQAPGNERELVATMTTSGSANYADSVKGRFTISRDNEKTVTLQMNSLKPEDTALYYCYMHSVYYGIDYWGKGTQVTVSS
B3: NRCoV2-MRed18 VHH (VHH)
VHH: EVQLVESGGGLVQPGGSLRLSCAASTTVFGRNAMGWYRQAPGKERELVATVSDGGTPNYADSVKGRFTISRDNAKNTIYLQMNSLEPEDTAVYYCNYYNYYYGRNFWGQGTQVTVSS
B4: NRCoV2-MRed25 VHH (VHH)
VHH: EVQLVESGGGLVQAGGSLRLSCAASGHTFSRYGMGWFRQAPGKEREFVAAISWRGDSTYYRDSVNGRFTISRDNAKNTVYLGMNSLKPEDTAVYYCAAEMWGTATIVASRYTYWGQGTQVTVSS
B5: NRCoV2-MRed22 VHH (VHH)
VHH: EVQLVESGGGLVQPGGSLRLSCAASGSVFASNAMGWYRQAPGKQRELVATISSRGSTNYADSVKGRFTISRDNAKNTVYLQMNSLGPEDTAVYYCNAREFTGFDYWGQGTQVTVSS
B6: NRCoV2-MRed03 VHH-Fc (Fc fusion)
chain: EVQLVESGGGLVQPGGSLRLSCAAIGFTLDYYAIGWFRQAPGKEREGVSCISSSDGSTYYADSVKGRFTISRDNAKNTVYLQMNSLKPEDTAVYYCATDAFATCDSWYAQIAQYDFRGQGTQVTVSS
notes: bivalent VHH-Fc
B7: NRCoV2-S2A4 VHH-Fc (Fc fusion)
chain: QVQLVQSGGGLVQAGGSLRLSCAVSGSPFRSNVMEWYRQAPGKQRELVASISTGGSRTYTDSVKGRFTISRDNAKNEAFLQMNSLKPEDTAVYYCHAAARDSHGIYLLDTWGQGTQVTVSS
notes: bivalent VHH-Fc
B8: NRCoV2-10 VHH-Fc (Fc fusion)
chain: QLQLQESGGGLVQPGGSLTLSCAASGNTFSRSNMHWYRQAPGAQREWVAAISSRGISTYAYSAKGRFTISRDNAKNTVSLQMNSLKPEDTAVYYCYAADDLGDYWGQGTQVTVSS
notes: bivalent VHH-Fc
B9: NRCoV2-04 VHH-Fc (Fc fusion)
chain: AVQLVDSGGGLVQPGGSLRLSCAASGSPFSNVVMAWYRQAPGKQRERVAFISGGGIADYIMSVKGRFTISRDNAKNTVYLQMNSLKPEDTAVYYCWSSYESTWGQGTQVTVSS
notes: bivalent VHH-Fc
B10: NRCoV2-06 VHH-Fc (Fc fusion)
chain: EVQLVQSGGGLVQAGESLRLSCAASVSTFSSYAMGWYRQAPGKQRELVASIGFVGATYYIDSVKGRFTISRDNAKKTAYLQMNDLKPDDTAVYYCNARHYGGSEYWGQGTQVTVSS
notes: bivalent VHH-Fc
B11: NRCoV2-14 VHH-Fc (Fc fusion)
chain: EVQLVSSGGGLVQAGGSLRLSCEASGTTFSHYAVGWYRQAPGKQREWVASISVFGSTTYGGSVAGRFTISRDNDKNTVDLQMNSLKPEDTAVYYCHAVNADIGGDYWGQGTQVTVSS
notes: bivalent VHH-Fc
B12: NRCoV2-03 VHH-Fc (Fc fusion)
chain: EVQLVSSGGGLVQAGGSLRLSCTASGITFSYYAMGWYRQAPGQPRELVASMSNMDSTIYADSVKGRFTISRDNAKTTIYLQMNNLKPEDTAVYFCNIYGPTYSTRRNEYWGQGTQVTVSS
notes: bivalent VHH-Fc
B13: NRCoV2-05 VHH-Fc (Fc fusion)
chain: EVKLVQSGGGLVQPGGSLRLSCAASGFIFSNYAMNWVRQAPGKGLEWVSGINSGGGDTRYADSVKGRFTVSRDNAKNTLYLQMNSLKPEDTGVYYCSKGPVSSYYGSGYDYRGQGTQVTVSS
notes: bivalent VHH-Fc
B14: NRCoV2-02 VHH-Fc (Fc fusion)
chain: EVQLVESGGGLVQAGGSLRLSCAASGFTFSNYAMNWVRQAPGKGLEWVSGISGRGDDTRYADSVKGRFTISRDNAKNTLFLQMRSLRPEDTGVYRCTKGPDLYYFGSGYSDRGQGTQVTVSS
notes: bivalent VHH-Fc
B15: NRCoV2-SR16 VHH-Fc (Fc fusion)
chain: QVQLVQSAGGLVQAGGSLRLSCVVSGTTFSRYHMGWHRQAPGKQRDFVAGISTSGAVTYADSAKGRFTISRDNAKNTVYLEMNSLKLEDTALYYCNTGGWDYRSSTFIMGLNWGQGTQVTVSS
notes: bivalent VHH-Fc
B16: NRCoV2-MRed06 VHH-Fc (Fc fusion)
chain: EVQLVESGGGLVQAGGSLRLSCAASGFTLAYYAIGWFRQAPGKEREGVSCISSSDGSAHYADSVKGRFTISRDNAKNTVSLQMNSLKPEDTAVYYCATDSFSSCSDYESGMDFWGKGTQVTVSS
notes: bivalent VHH-Fc
B17: NRCoV2-MRed07 VHH-Fc (Fc fusion)
chain: EVQLVESGGGLVQPGGSLTLSCAASGSIGPFNTMGWYRQAPGNQREPAAIITRGGVTNYADSVKGRFTISRDNAKNAVYLQMDSLKPDDTAVYYCYANYGWAIPYWGNGTQVTVSS
notes: bivalent VHH-Fc

The first assay deals with T1, SARS-CoV-2 S2 (aa686-1208) (Wuhan) (SARS-CoV-2 Wuhan, UniProt P0DTC2 686-1208).
T1 construct: NRC; FLAG, 6xHis tags
The assay can be described thus: SPR, antigen on chip. Background: In SPR one partner is held on a chip, and binding of the other changes the refractive index at the surface.
On to B1, for which the dissociation constant Kd stood at 0.299 nM, the off-rate constant (koff) came out at 3.38e-05 s⁻¹ and the kon came out at 113000 M⁻¹ s⁻¹.
The like results for B2 were, in that order, 8.2 nM, 0.00084 s⁻¹ and 102000 M⁻¹ s⁻¹.
For B3 the same measures were 6.8 nM, 0.00103 s⁻¹ and 152000 M⁻¹ s⁻¹.
The like results for B4 were, in that order, 1.56 nM, 0.00019 s⁻¹ and 122000 M⁻¹ s⁻¹.
B5 came in with a Kd of 1.05 nM, an off-rate (koff) of 0.000284 s⁻¹ and a kon of 270000 M⁻¹ s⁻¹.

Another assay addresses T2, SARS-CoV-2 spike trimer S (Wuhan, SmT1) (SARS-CoV-2 Wuhan).
T2 construct: extracellular domain
The experiment in a line: SPR, antigen on chip.
Turning to B1, binding was characterised by a dissociation constant (Kd) of 0.0918 nM, the off-rate constant (koff) came to 1.46e-05 s⁻¹ and the on-rate (kon) is 160000 M⁻¹ s⁻¹.
For B2 the same measures were 5.01 nM, 0.000799 s⁻¹ and 159000 M⁻¹ s⁻¹.
The molecule B3 yielded a Kd of 7.56 nM, a koff of 0.00153 s⁻¹ and an association rate constant (kon) of 202000 M⁻¹ s⁻¹.
In turn, B4 came in with a dissociation constant (Kd) of 1.02 nM, a koff of 0.000115 s⁻¹ and a kon of 112000 M⁻¹ s⁻¹.
Regarding B5, the Kd was 0.506 nM, the dissociation rate constant (koff) was determined as 0.000176 s⁻¹ and the kon stood at 347000 M⁻¹ s⁻¹.

A further assay has as its target T3, SARS-CoV-2 S1 (aa16-685) (Wuhan) (SARS-CoV-2 Wuhan, UniProt P0DTC2 16-685).
T3 construct: NRC; FLAG, 6xHis tags
The experiment in a line: SPR, antigen on chip.
Consider B1, for which the binding result is listed as “no binding”.
The same measure, in the same setting: with B2 the entry was “no binding”; with B3, “no binding”; with B4, “no binding”.
On the same count and under the same terms, the entry for B5 is “no binding”.

In another assay the target is T4, SARS-CoV-2 S on CHO-S cells (SARS-CoV-2, UniProt P0DTC2 14-1273).
T4 construct: whole, on cells
The experiment in a line: flow cytometry, CHO-S cells. On the technique in general: A flow cytometer gives signals particle by particle.
Consider B6, for which the Bmax is 12000 and the concentration for a half-maximal effect (EC50) is 15.1 nM.
The like results for B7 were, in that order, 6860 and 0.1 nM.
For B8 the same measures were 28000 and 1.3 nM.
As to B9, the Bmax came out at 15500 and the EC50 was 1.3 nM.
The like results for B10 were, in that order, 13600 and 8.1 nM.
Regarding B11, the Bmax was 18800 and the midpoint of the response, the EC50, lay at 0.9 nM.
For B12 the same measures were 16200 and 78.9 nM.
For B13 the same measures were 17400 and 0.5 nM.
In the case of B14, the Bmax was 18600 and the concentration for a half-maximal effect (EC50) came to 0.3 nM.
With B15, the Bmax worked out at 11600 and a half-maximal response (EC50) required 1.4 nM.
For B16 the same measures were 9020 and 8.5 nM.
The like results for B17 were, in that order, 8670 and 132 nM.

The target in the next assay is T1, SARS-CoV-2 S2 (aa686-1208) (Wuhan). The experiment in a line: ELISA. (ELISA stands for enzyme-linked immunosorbent assay.)
As for B6, the binding result is reported as “no binding (tested: 13 nM)”.
Still for that read-out and setting: the entry for B8 is “no binding (tested: 13 nM)”; for B9 it is “no binding (tested: 13 nM)”; for B10 it is “no binding (tested: 13 nM)”.
Consider B11, for which the binding result was “no binding (tested: 13 nM)”.
The same measure, in the same setting: the entry for B12 is “no binding (tested: 13 nM)”; for B13 it is “no binding (tested: 13 nM)”; for B14 it is “no binding (tested: 13 nM)”.
The same measure, in the same setting: with B15 the entry was “no binding (tested: 13 nM)”; with B16, “no binding (tested: 13 nM)”; with B17, “no binding (tested: 13 nM)”.

The next assay addresses SARS-CoV spike (S) (SARS-CoV, UniProt P59594 14-1195). The assay can be described thus: ELISA.
With B6, the binding result is listed as “no binding (tested: 13 nM)”.
The same measure, in the same setting: with B8 the entry was “no binding (tested: 13 nM)”; with B9, “no binding (tested: 13 nM)”.
On the same count and under the same terms, with B10 the entry was “no binding (tested: 13 nM)”; with B11, “no binding (tested: 13 nM)”; with B12, “no binding (tested: 13 nM)”.
Still for that read-out and setting: the entry for B13 is “no binding (tested: 13 nM)”; for B14 it is “no binding (tested: 13 nM)”; for B15 it is “no binding (tested: 13 nM)”.
As to B16, the binding result is on record as “no binding (tested: 13 nM)”.
Take B17: the binding result is given as “no binding (tested: 13 nM)”.

For a further assay, the target named is SARS-CoV-2 S1-NTD (aa16-305) (SARS-CoV-2 Wuhan, UniProt P0DTC2 16-305). The assay can be described thus: ELISA.
Turning to B7, the binding result is on record as “no binding (tested: 13 nM)”.
Still for that read-out and setting: the entry for B8 is “no binding (tested: 13 nM)”; for B9 it is “no binding (tested: 13 nM)”.
As to B10, the binding result was “no binding (tested: 13 nM)”.
The same measure, in the same setting: with B11 the entry was “no binding (tested: 13 nM)”; with B12, “no binding (tested: 13 nM)”; with B13, “no binding (tested: 13 nM)”.
The same measure, in the same setting: the entry for B14 is “no binding (tested: 13 nM)”.

The target of another assay is T3, SARS-CoV-2 S1 (aa16-685) (Wuhan). The assay can be described thus: ELISA.
With B7, the binding result is recorded as “no binding (tested: 13 nM)”.

What is called Kd is a measure of binding affinity in units of concentration. The low end stands for higher affinity, the high end for lower affinity. One may read the koff as the first-order rate constant of dissociation. Higher therefore signals a short-lived complex. By kon is commonly meant the rate constant with which the complex forms. High values mean fast association, low ones slow association. As usually defined, the EC50 is the concentration that produces a half-maximal response. Lower therefore signals higher potency in that assay.

The record behind these values is patent publication US20240270826A1 (NATIONAL RESEARCH COUNCIL OF CANADA, published 2024).
